Test results from article PMC10046596, “Biophysical and Biochemical Characterization of the Binding of the MarR-like Transcriptional Regulator Saro_0803 to the nov1 Promotor and Its Inhibition by Resveratrol” (Biomolecules, 2023).

What was measured:
Saro_0803 [1] = target: T1, Saro_0803 (Novosphingobium aromaticivorans, UniProt Q2GA75); test: ITC (also SPR, Kd […]; EMSA shows inhibition of nov1p^[…]bp binding)
T1 construct: His-tagged Saro_0803 (pET-30a(+)), full-length; homogeneous dimer in solution
T1 sequence (Q2GA75 1-157): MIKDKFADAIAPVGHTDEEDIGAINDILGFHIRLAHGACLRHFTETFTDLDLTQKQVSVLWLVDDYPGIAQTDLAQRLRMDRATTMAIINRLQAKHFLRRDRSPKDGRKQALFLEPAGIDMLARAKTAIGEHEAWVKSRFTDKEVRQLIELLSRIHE

Saro_0803 K109E = target: T2, Saro_0803 K109E (Novosphingobium aromaticivorans DSM …, UniProt Q2GA75 1-157, K109E); test: ITC; 5% DMSO; ITC: 50 mM Tris-HCl pH 8.0, 200 mM NaCl, 5% DMSO, 25 °C, 20 µM protein, 200 µM DNA; EMSA: 5.0 µM DNA (annealed in 50 mM Tris-HCl pH 8.0, 200 mM NaCl), 37 °C 30; details: protein: recombinant; tags: His-tag; chain copies: 2
T2 sequence: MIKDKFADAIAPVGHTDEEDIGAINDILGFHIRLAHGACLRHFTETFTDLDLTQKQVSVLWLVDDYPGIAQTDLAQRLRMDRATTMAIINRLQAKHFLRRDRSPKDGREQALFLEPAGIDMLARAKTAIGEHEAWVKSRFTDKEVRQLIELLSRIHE

Saro_0803 R108D = target: T3, Saro_0803 R108D (Novosphingobium aromaticivorans DSM …, UniProt Q2GA75 1-157, R108D); test: as above; details: protein: recombinant; tags: His-tag; chain copies: 2
T3 sequence: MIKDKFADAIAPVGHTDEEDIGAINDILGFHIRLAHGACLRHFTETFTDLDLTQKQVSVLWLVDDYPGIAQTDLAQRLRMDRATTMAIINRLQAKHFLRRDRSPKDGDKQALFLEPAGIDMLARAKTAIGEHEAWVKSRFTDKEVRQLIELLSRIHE

Saro_0803 A87R = target: T4, Saro_0803 A87R (Novosphingobium aromaticivorans DSM …, UniProt Q2GA75 1-157, A87R); test: as above; details: protein: recombinant; tags: His-tag; chain copies: 2
T4 sequence: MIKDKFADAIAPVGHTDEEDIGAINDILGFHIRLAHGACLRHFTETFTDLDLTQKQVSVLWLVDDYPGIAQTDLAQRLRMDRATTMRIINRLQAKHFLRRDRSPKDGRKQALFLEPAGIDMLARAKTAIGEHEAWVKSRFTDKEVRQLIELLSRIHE

Saro_0803 [2] = target: T5, Saro_0803 (Novosphingobium aromaticivorans DSM …, UniProt Q2GA75 1-157); test: as above; details: protein: recombinant; tags: His-tag (pET-30a(+), NdeI/XhoI); chain copies: 2
T5 sequence: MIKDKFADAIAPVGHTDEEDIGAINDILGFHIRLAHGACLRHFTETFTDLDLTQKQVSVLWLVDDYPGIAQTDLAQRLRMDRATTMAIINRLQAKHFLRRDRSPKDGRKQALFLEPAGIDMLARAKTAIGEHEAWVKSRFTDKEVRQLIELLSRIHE

Saro_0803 K109A = target: T6, Saro_0803 K109A (Novosphingobium aromaticivorans DSM …, UniProt Q2GA75 1-157, K109A); test: as above; details: protein: recombinant; tags: His-tag; chain copies: 2
T6 sequence: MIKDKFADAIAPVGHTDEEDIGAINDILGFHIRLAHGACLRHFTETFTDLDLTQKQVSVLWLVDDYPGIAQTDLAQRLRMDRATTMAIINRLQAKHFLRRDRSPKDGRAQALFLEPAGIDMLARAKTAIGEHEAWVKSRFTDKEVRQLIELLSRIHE

Saro_0803 R108A = target: T7, Saro_0803 R108A (Novosphingobium aromaticivorans DSM …, UniProt Q2GA75 1-157, R108A); test: as above; details: protein: recombinant; tags: His-tag; chain copies: 2
T7 sequence: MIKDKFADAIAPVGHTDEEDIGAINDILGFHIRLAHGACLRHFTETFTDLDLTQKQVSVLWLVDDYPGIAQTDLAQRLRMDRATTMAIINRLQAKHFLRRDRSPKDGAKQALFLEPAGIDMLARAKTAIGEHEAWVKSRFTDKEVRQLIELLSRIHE

Saro_0803 K55A = target: T8, Saro_0803 K55A (Novosphingobium aromaticivorans DSM …, UniProt Q2GA75 1-157, K55A); test: as above; details: protein: recombinant; tags: His-tag; chain copies: 2
T8 sequence: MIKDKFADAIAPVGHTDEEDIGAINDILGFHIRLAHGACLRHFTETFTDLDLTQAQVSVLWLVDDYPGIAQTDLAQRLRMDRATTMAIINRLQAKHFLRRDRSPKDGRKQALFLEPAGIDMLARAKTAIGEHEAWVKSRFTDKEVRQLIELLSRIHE

Saro_0803 W61A = target: T9, Saro_0803 W61A (Novosphingobium aromaticivorans DSM …, UniProt Q2GA75 1-157, W61A); test: ITC, EMSA; micromolar or submicromolar; ITC: 50 mM Tris-HCl pH 8.0, 200 mM NaCl, 5% DMSO, 25 °C, 20 µM protein, 200 µM DNA; EMSA: 5.0 µM DNA (annealed in 50 mM Tris-HCl pH 8.0, 200 mM NaCl), 37 °C 30; details: protein: recombinant; tags: His-tag; chain copies: 2
T9 sequence: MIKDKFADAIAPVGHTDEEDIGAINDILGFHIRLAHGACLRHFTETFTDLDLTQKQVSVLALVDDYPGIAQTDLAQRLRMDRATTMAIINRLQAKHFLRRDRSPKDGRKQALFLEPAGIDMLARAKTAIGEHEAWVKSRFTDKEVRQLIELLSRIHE

Saro_0803 F47A = target: T10, Saro_0803 F47A (Novosphingobium aromaticivorans DSM …, UniProt Q2GA75 1-157, F47A); test: as above; details: protein: recombinant; tags: His-tag; chain copies: 2
T10 sequence: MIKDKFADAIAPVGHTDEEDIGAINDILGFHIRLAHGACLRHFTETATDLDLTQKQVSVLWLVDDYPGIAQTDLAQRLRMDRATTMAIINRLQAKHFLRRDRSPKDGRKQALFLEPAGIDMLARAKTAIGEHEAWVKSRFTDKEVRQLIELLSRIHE

Saro_0803 F43A = target: T11, Saro_0803 F43A (Novosphingobium aromaticivorans DSM …, UniProt Q2GA75 1-157, F43A); test: as above; details: protein: recombinant; tags: His-tag; chain copies: 2
T11 sequence: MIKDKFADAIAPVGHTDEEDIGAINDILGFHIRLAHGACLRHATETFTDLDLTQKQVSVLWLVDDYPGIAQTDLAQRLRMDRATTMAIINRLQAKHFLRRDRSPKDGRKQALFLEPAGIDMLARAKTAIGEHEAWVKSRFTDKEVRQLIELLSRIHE

Saro_0803 F30A = target: T12, Saro_0803 F30A (Novosphingobium aromaticivorans DSM …, UniProt Q2GA75 1-157, F30A); test: as above; details: protein: recombinant; tags: His-tag; chain copies: 2
T12 sequence: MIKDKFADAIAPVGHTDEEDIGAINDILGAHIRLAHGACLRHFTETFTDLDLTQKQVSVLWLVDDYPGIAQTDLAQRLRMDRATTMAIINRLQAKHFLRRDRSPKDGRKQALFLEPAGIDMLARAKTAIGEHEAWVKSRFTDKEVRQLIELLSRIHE

[3] = target: the molecule itself; test: AUC; sedimentation velocity, protein ~1.0 mg/mL, 40,000 rpm for 2 h at 4 °C, c(s) analysis with Sedfit
Saro_0803 [4] = target: T5, Saro_0803; test: EMSA; ITC: 50 mM Tris-HCl pH 8.0, 200 mM NaCl, 5% DMSO, 25 °C, 20 µM protein, 200 µM DNA; EMSA: 5.0 µM DNA (annealed in 50 mM Tris-HCl pH 8.0, 200 mM NaCl), 37 °C 30; details: protein: recombinant; tags: His-tag (pET-30a(+), NdeI/XhoI); chain copies: 2
Saro_0803 [5] = target: T5, Saro_0803; test: EMSA; 10 µM protein; ITC: 50 mM Tris-HCl pH 8.0, 200 mM NaCl, 5% DMSO, 25 °C, 20 µM protein, 200 µM DNA; EMSA: 5.0 µM DNA (annealed in 50 mM Tris-HCl pH 8.0, 200 mM NaCl), 37 °C 30; details: protein: recombinant; tags: His-tag (pET-30a(+), NdeI/XhoI); chain copies: 2

Question: How did the Kd (Saro_0803 [1]) turn out when `Oc1ccc(/C=C/c2cc(O)cc(O)c2)cc1` [resveratrol] was run?
Answer: Its Kd is roughly 35.7 µM.

B1: nov1p22bp (dsDNA)
DNA 1: TAATTGTTAGCAATACATACAA
DNA 2: TTGTATGTATTGCTAACAATTA
Question: Which results are given for B1?
Answer: binding result (Saro_0803 K109E): no binding; binding result (Saro_0803 R108D): no binding; Kd (Saro_0803 A87R): ~1.16 µM; Kd (Saro_0803 [2]): ~3.57 µM; binding result (Saro_0803 K109A): no binding; binding result (Saro_0803 R108A): no binding; binding signal (Saro_0803 K55A): ~3 fold decrease in affinity vs WT; binding result (Saro_0803 W61A): binds; binding result (Saro_0803 F47A): binds; binding result (Saro_0803 F43A): binds; binding result (Saro_0803 F30A): binds

B2: Saro_0803, MarR-like transcriptional regulator of Novosphingobium aromaticivorans DSM 12444 (natural protein, UniProt Q2GA75 1-157, looked up)
chain: MIKDKFADAIAPVGHTDEEDIGAINDILGFHIRLAHGACLRHFTETFTDLDLTQKQVSVLWLVDDYPGIAQTDLAQRLRMDRATTMAIINRLQAKHFLRRDRSPKDGRKQALFLEPAGIDMLARAKTAIGEHEAWVKSRFTDKEVRQLIELLSRIHE
notes: Transcriptional regulator Saro_0803 (MarR family), encoded by gene saro_0803 of Novosphingobium aromaticivorans DSM 12444; theoretical MW of the tagged protein around 18.75 kDa; called full-length in contrast to the truncation 21-157; Cloned into pET-30a(+) by Nde I/Xho I; No removal of the tag is described; also called polyhistidine-tagged Saro_0803; His-tagged Saro_0803; source: E. coli …
Question: B2 was tested. Which “stoichiometry N” value [3] did it give?
Answer: The value was 2.

B3: downstream neighboring fragment (dsDNA)
DNA 1: TATTGCAAGGAGGATGCC
DNA 2: GGCATCCTCCTTGCAATA
Question: Does B3 bind (Saro_0803 [4])?
Answer: Result: no binding

B4: nov1p58bp with 15 bp 3' deletion (43 bp) (dsDNA)
DNA 1: CCAACGAATGCGCTTGTCTAATTGTTAGCAATACATACAATAT
DNA 2: ATATTGTATGTATTGCTAACAATTAGACAAGCGCATTCGTTGG
Question: Does B4 bind (Saro_0803 [5])?
Answer: Result: no binding

B5: 18-bp upstream fragment (dsDNA)
DNA 1: CCAACGAATGCGCTTGTC
DNA 2: GACAAGCGCATTCGTTGG
Question: Does B5 bind (Saro_0803 [4])?
Answer: Result: no binding
